Test results taken from patent US20210284734A1.

Target: cyno PD1
Experiment: flow cytometry, PD-1-transfected CHO-S cells; mAb 10 ug/ml, then R-PE PD-L1-Fc as blocked ligand

Sequence of cyno PD1 (receptor, as listed by the source limits assumed): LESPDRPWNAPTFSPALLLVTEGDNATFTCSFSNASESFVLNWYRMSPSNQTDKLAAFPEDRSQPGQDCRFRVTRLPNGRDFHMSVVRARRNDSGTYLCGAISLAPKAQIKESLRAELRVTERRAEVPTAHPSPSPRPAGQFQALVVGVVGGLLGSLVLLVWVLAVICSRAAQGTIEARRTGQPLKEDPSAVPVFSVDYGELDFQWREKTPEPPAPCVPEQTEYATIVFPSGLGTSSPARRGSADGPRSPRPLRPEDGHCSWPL
Sequence of pembrolizumab analogue (antibody) (VH): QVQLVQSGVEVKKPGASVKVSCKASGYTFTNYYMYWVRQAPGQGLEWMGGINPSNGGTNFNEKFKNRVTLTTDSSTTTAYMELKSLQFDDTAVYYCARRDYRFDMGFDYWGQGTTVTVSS
Sequence of pembrolizumab analogue (antibody) (VL): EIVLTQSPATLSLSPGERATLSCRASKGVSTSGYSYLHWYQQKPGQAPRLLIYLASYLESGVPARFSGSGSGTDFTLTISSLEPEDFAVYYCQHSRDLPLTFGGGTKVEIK

**Q.** What does the source list for pembrolizumab analogue (antibody)?
**A.** % of all cells in Q2 of panel PD-L1 binding (PD-L1+, CFSE+ cyno PD1 cells): 0.38%; % of all cells in Q3 of panel PD-L1 binding (PD-L1-, CFSE+ cyno PD1 cells): 52.5%; % of cyno PD1-gated cells in Q1 (mAb+, PD-L1-): 44.7%; % of cyno PD1-gated cells in Q2 (mAb+, PD-L1+): 3.84%; % of cyno PD1-gated cells in Q3 (mAb-, PD-L1+): 0.92%; % of cyno PD1-gated cells in Q4 (mAb-, PD-L1-): 50.6%
